{
  "source": "paper PMC12012533",
  "about": "“Structural basis for immune cell binding of Fusobacterium nucleatum via the trimeric autotransporter adhesin CbpF” (Proceedings of the National Academy of Sciences of the …, 2025)",
  "binders": {"B1": {"name": "CEACAM binding protein of Fusobacterium (CbpF) from F. nucleatum ATCC25586, wild type, detergent-solubilised (natural protein)", "chain": "SAAPVIKAGTATDSTEAGVDNVANGVKSSAFGYDNKAIEKESSAFGTGNRATGEFSSAFGFHNIASKIHSSAFGSNNAADGVNSSAFGFKNTVSGFNSSAFGSQYQVTGNFSGAFGMGEFNGQYQYKNEGNNSYMIGNKNKIASGSDDNFILGNNVHIGGGINNSVALGNNSTVSASNTVSVGSSTLKRKIVNVGDGAISANSSDAVTGRQLYSGNGIDTAAWQNKLNVTRKNDYKDANDIDVNKWKAKLGVGSGGGGGAPVDAYTKSEADNKFANKTDLNDYTKKDDYKDANGIDVDKWKAKLGTGAGTADIENLRNEVNEKIDDVKDEVRTVGSLSAALAGLHPMQYDPKAPVQVMAALGHYRDKQSVAVGASYYFNDRFMMSTGIALSGEKRTKTMANVGFTLKLGKGSGVTYDETPQYVVQNEVKRLTVENQELKERVRNLEEKLNMLLKNK", "notes": "Cloned in pASK-IBA2C behind an N-terminal E. coli OmpA signal peptide; Homotrimer; also called CbpF WT; CbpF wt; source: E. coli BL21 C43, extracted from membranes with lauroylsarcosine, purified (StrepTactin, SEC)"}, "B2": {"name": "CEACAM binding protein of Fusobacterium (CbpF), F. nucleatum ATCC25586, wild type (natural protein)", "chain": "SAAPVIKAGTATDSTEAGVDNVANGVKSSAFGYDNKAIEKESSAFGTGNRATGEFSSAFGFHNIASKIHSSAFGSNNAADGVNSSAFGFKNTVSGFNSSAFGSQYQVTGNFSGAFGMGEFNGQYQYKNEGNNSYMIGNKNKIASGSDDNFILGNNVHIGGGINNSVALGNNSTVSASNTVSVGSSTLKRKIVNVGDGAISANSSDAVTGRQLYSGNGIDTAAWQNKLNVTRKNDYKDANDIDVNKWKAKLGVGSGGGGGAPVDAYTKSEADNKFANKTDLNDYTKKDDYKDANGIDVDKWKAKLGTGAGTADIENLRNEVNEKIDDVKDEVRTVGSLSAALAGLHPMQYDPKAPVQVMAALGHYRDKQSVAVGASYYFNDRFMMSTGIALSGEKRTKTMANVGFTLKLGKGSGVTYDETPQYVVQNEVKRLTVENQELKERVRNLEEKLNMLLKNK", "modifications": "AlexaFluor 647 NHS-ester conjugate (cell binding and competition assays only)", "notes": "CbpF (FN1499) of Fusobacterium nucleatum ATCC25586, codon-optimized gene; mature protein after signal peptide cleavage, residues S24-K479; numbers count on the precursor with its own signal peptide; Cloned in frame with an N-terminal E. coli OmpA signal peptide (export signal; In detergent for SPR and the SEC test, in DMPC/MSP1D1 nanodiscs for cryo-EM and the cell assays; also called CbpF wt; …)"}, "B3": {"name": "CEACAM1 extracellular domain (residues 35–428), C-terminal hexahistidine tag (domain or fragment, human, UniProt P13688 35-428, looked up)", "chain": "QLTTESMPFNVAEGKEVLLLVHNLPQQLFGYSWYKGERVDGNRQIVGYAIGTQQATPGPANSGRETIYPNASLLIQNVTQNDTGFYTLQVIKSDLVNEEATGQFHVYPELPKPSISSNNSNPVEDKDAVAFTCEPETQDTTYLWWINNQSLPVSPRLQLSNGNRTLTLLSVTRNDTGPYECEIQNPVSANRSDPVTLNVTYGPDTPTISPSDTYYRPGANLSLSCYAASNPPAQYSWLINGTFQQSTQELFIPNITVNNSGSYTCHANNSVTGCNRTTVKTIIVTELSPVVAKPQIKASKTTVTGDKDSVNLTCSTNDTGISIRWFFKNQSLPSSERMKLSQGNTTLSINPVKREDAGTYWCEVFNPISKNQSDPIMLNVNYNALPQENGLSPG", "modifications": "glycosylated (N-acetylglucosamines modelled on the IgV-like and IgC2-like A1 domains)", "notes": "human carcinoembryonic antigen-related cell adhesion molecule 1 (CEACAM1), extracellular domain, residues 35-428 of UniProt P13688; also called CEACAM1/ECD; CEACAM1-ECD; source: bought: ACRO Biosystems (Cat. No. CE1-H5220), produced in HEK293 cells; not shown: His6, C-terminal, kept"}},
  "key": {"[1]": {"target": "the molecule itself", "assay": "SDS-PAGE (SDS- and heat-resistant oligomer); elution fractions of membrane-extracted CbpF from StrepTactin resin; monomer at 50 kDa, trimer at 150 kDa"}, "[2]": {"target": "the molecule itself", "assay": "SDS-PAGE (SDS- and heat-resistant oligomer); purified CbpF, in detergent and after reconstitution in DMPC/MSP1D1 nanodiscs; band above 150 kDa"}, "[3]": {"target": "B3", "assay": "cryo-EM structure; 4.6 µM nanodisc-embedded CbpF (trimer) incubated with 14 µM CEACAM1/ECD for 60 min at 23 °C, excess CEACAM1 removed by SEC; single particle analysis, C3 symmetry", "settings": "both partners purified"}, "[4]": {"target": "T1, CEACAM1-eGFP fusion protein on transfected HEK293T cells (human, UniProt P13688 35-526)", "T1 construct": "human CEACAM1 expressed from pcDNA3.1 as a GFP fusion; also called GFP-tagged CEACAM1; CEACAM1-GFP; source: HEK293T, transfected (pcDNA3.1, CMV promotor), on cells", "T1 sequence (looked up)": "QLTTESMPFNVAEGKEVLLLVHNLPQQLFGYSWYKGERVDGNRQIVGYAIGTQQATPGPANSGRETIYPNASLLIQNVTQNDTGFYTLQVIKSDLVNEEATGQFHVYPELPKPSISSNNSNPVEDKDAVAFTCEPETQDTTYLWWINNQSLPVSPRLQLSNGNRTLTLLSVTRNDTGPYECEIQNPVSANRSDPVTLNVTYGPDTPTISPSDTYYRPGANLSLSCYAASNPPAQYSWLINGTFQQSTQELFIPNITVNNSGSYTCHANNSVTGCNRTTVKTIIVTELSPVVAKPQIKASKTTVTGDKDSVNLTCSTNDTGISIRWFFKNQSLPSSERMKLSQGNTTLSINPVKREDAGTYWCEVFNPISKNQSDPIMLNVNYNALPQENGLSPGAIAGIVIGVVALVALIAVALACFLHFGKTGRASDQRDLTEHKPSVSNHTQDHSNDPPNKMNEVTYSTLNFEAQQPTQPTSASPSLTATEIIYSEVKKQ", "assay": "confocal fluorescence microscopy of labelled protein on cells; 1 µM AlexaFluor 647-labelled CbpF nanodiscs on HEK293T cells transfected with CEACAM1-GFP, 2 h at 37 °C, compared with empty nanodiscs; integrated fluorescence colocalizing with GFP or with the membrane stain", "settings": "one partner purified"}, "[5]": {"target": "B2", "assay": "SPR; Biacore T200; CEACAM1-ECD-His6 captured on an anti-His antibody on a CM5 chip (~35 RU); CbpF injected, 11.5 to 1,480 nM (WT) or 15.6 to 1,000 nM (WT and variants); 25 mM MOPS-NaOH, 150 mM NaCl, 1 % P8POE, pH 7.0, 25 °C; global fit with a 1:1 Langmuir or a heterogeneous ligand model", "settings": "both partners purified"}, "[6]": {"target": "B2", "assay": "competition of cell binding (confocal fluorescence microscopy); labelled CbpF nanodiscs preincubated with 1 or 2 µM purified CEACAM1-ECD for 30 min at 25 °C before incubation with cells", "settings": "both partners purified"}, "[7]": {"target": "B2", "assay": "SPR; same sensorgrams as a4, steady-state signals of the binding curves evaluated", "settings": "both partners purified"}, "[8]": {"target": "B1", "assay": "SPR; CEACAM1-ECD-His6 captured (about 35 RU) on anti-His antibody on a CM5 chip, Biacore T200; CbpF injected at 11.5-1480 nM (WT) or 15.6-1000 nM (WT and variants); 25 mM MOPS-NaOH, 150 mM NaCl, 1 % P8POE, pH 7.0, 25 °C; 240 s association, 600 s dissociation; 1:1 Langmuir global fit", "settings": "both partners purified"}},
  "note": "Where “and” joins values, the source holds several entries; their conditions need not be identical. Equal values may be shown once.",
  "data": [
    {"binder": "B1", "values": [
      {"measurement": "stoichiometry N", "setting": "[1]", "result": 3}
    ]},
    {"binder": "B2", "values": [
      {"measurement": "stoichiometry N", "setting": "[2]", "result": 3},
      {"measurement": "stoichiometry N", "setting": "[3]", "result": 1, "unit": "CEACAM1 per CbpF protomer"},
      {"measurement": "fold increase of the mean fluorescence signal over empty nanodiscs (colocalizing with cells)", "setting": "[4]", "result": 9.3, "unit": "fold"},
      {"measurement": "fold increase of the mean fluorescence signal over nanodiscs without CbpF (colocalizing with CEACAM1-GFP)", "setting": "[4]", "result": "~460", "unit": "fold"}
    ]},
    {"binder": "B3", "values": [
      {"measurement": "Kd", "setting": "[5]", "result": 6.2, "unit": "nM"},
      {"measurement": "koff", "setting": "[5]", "result": 0.00051, "unit": "s⁻¹"},
      {"measurement": "kon", "setting": "[5]", "result": 81300, "unit": "M⁻¹ s⁻¹"},
      {"measurement": "fold decrease of the CbpF signal on cells after preincubation", "setting": "[6]", "result": "~11", "unit": "fold"},
      {"measurement": "Kd", "setting": "[7]", "result": "75 ± 14", "unit": "nM"}
    ]},
    {"binder": "CEACAM1 extracellular domain (residues 35-428), C-terminal hexahistidine tag (domain or fragment, human, UniProt P13688 35-428, looked up, glycosylated, carcinoembryonic antigen-related cell adhesion molecule 1 (CEACAM1), human, extracellular domain, residues 35-428; also called CEACAM1-ECD; CEACAM1/ECD; source: bought: ACRO Biosystems, Cat. No. CE1-H5220, produced in HEK293 cells; not shown: His6, C-terminal, kept) QLTTESMPFNVAEGKEVLLLVHNLPQQLFGYSWYKGERVDGNRQIVGYAIGTQQATPGPANSGRETIYPNASLLIQNVTQNDTGFYTLQVIKSDLVNEEATGQFHVYPELPKPSISSNNSNPVEDKDAVAFTCEPETQDTTYLWWINNQSLPVSPRLQLSNGNRTLTLLSVTRNDTGPYECEIQNPVSANRSDPVTLNVTYGPDTPTISPSDTYYRPGANLSLSCYAASNPPAQYSWLINGTFQQSTQELFIPNITVNNSGSYTCHANNSVTGCNRTTVKTIIVTELSPVVAKPQIKASKTTVTGDKDSVNLTCSTNDTGISIRWFFKNQSLPSSERMKLSQGNTTLSINPVKREDAGTYWCEVFNPISKNQSDPIMLNVNYNALPQENGLSPG", "values": [
      {"measurement": "Kd", "setting": "[8]", "result": "6.16 nM and 6.29 nM"},
      {"measurement": "koff", "setting": "[8]", "result": "0.000501 s⁻¹ and 0.000844 s⁻¹"},
      {"measurement": "kon", "setting": "[8]", "result": 134000, "unit": "M⁻¹ s⁻¹"}
    ]}
  ]
}
